The data set has as its system human recombinant carboxylesterases. Nature of the data set: In vitro metabolic stability in human recombinant carboxylesterases (rate of metabolite formation, LC-MS/MS). In kind it is in vitro ADME. To be noted: 1 μM test compound, 0.1 mg/mL human recombinant carboxylesterase mixture, pH=6.0, 37° C., triplicate. The procedure:
In Vitro Metabolic Stability in Human Recombinant Carboxylesterases
Human recombinant carboxylesterases were purchased from a commercial vendor (BD Gentest™, Bedford, Mass.). All metabolic stability experiments were performed in triplicate in 96-well plate format. The final incubation mixture contained 1 μM test compound and 0.1 mg/mL human recombinant carboxylesterase mixture in a final volume of 0.5 mL 0.1M potassium phosphate buffer (pH=6.0). […] Following a pre-incubation at 37° C., test article was added to initiate the reaction. At designated time points (typically 120 minutes to capture the linear range of metabolite formation), 0.05 mL aliquots were removed from the incubation mixtures using a clean pipet tip and immediately placed in organic solvent to stop any esterase activity.
The samples were analyzed by liquid chromatography with mass spectrometry (LC-MS/MS) detection to determine the metabolite concentrations resulting from the metabolism of the hybrid compounds. Internal standards were used to compensate for variability from sample processing, chromatographic elution, mass spectrometer response and ion suppression by matrix components.

Take `C/C=C/C[C@@H](C)C(OC(=O)OCOC(=O)CCC(=O)OCCOCCOCCOC(=O)CCC(=O)OCC(=O)[C@@]1(O)CCC2C3CCC4=CC(=O)C=C[C@]4(C)C3[C@@H](O)C[C@@]21C)C1C(=O)NC(CC)C(=O)N(C)CC(=O)N(C)[C@@H](CC(C)C)C(=O)NC(C(C)C)C(=O)N(C)C(CC(C)C)C(=O)NC(C)C(=O)NC(C)C(=O)N(C)C(CC(C)C)C(=O)N(C)C(CC(C)C)C(=O)N(C)C(C(C)C)C(=O)N1C` (relative stereo) [Compound 5]: the “Rate of formation Metabolite 2 (Cyclosporine A)” value (“Rate … (Cyclosporine A)” below) was found to be 35.6 ± 0.63 nM/min/mg and the “Rate of formation Metabolite 1 (Prednisolone)” value (shortened to “Rate … (Prednisolone)”) amounted to 84.4 ± 7.52 nM/min/mg.

Turning to `C/C=C/C[C@@H](C)[C@@H](OC(=O)OCOC(=O)CCC(=O)OCCOCCOCCOCCOC(=O)CCC(=O)OCC(=O)[C@@]1(O)CCC2C3CCC4=CC(=O)C=C[C@]4(C)C3[C@@H](O)C[C@@]21C)C1C(=O)NC(CC)C(=O)N(C)CC(=O)N(C)[C@@H](CC(C)C)C(=O)NC(C(C)C)C(=O)N(C)C(CC(C)C)C(=O)NC(C)C(=O)NC(C)C(=O)N(C)C(CC(C)C)C(=O)N(C)C(CC(C)C)C(=O)N(C)C(C(C)C)C(=O)N1C` (relative stereo) [Compound 6], the “Rate … (Cyclosporine A)” value is 34.4 ± 3.85 nM/min/mg.

For `C/C=C/C[C@@H](C)C(OC(=O)CN(C)C(=O)CNC(=O)OCOC(=O)CCC(=O)OCC(=O)[C@@]1(O)CCC2C3CCC4=CC(=O)C=C[C@]4(C)C3[C@@H](O)C[C@@]21C)C1C(=O)NC(CC)C(=O)N(C)CC(=O)N(C)[C@@H](CC(C)C)C(=O)NC(C(C)C)C(=O)N(C)C(CC(C)C)C(=O)NC(C)C(=O)N[C@@H](C)C(=O)N(C)[C@@H](CC(C)C)C(=O)N(C)C(CC(C)C)C(=O)N(C)C(C(C)C)C(=O)N1C` (relative stereo) [Compound 7], the “Rate … (Cyclosporine A)” value is listed as 1.31 ± 0.18 nM/min/mg and the “Rate … (Prednisolone)” value is listed as 4.26 ± 1.31 nM/min/mg.

Take `C/C=C/C[C@@H](C)[C@@H](OC(=O)OCOC(=O)CCC(=O)OCCOCCOCCOCCOC(=O)CCC(=O)OCC(=O)[C@@]1(O)[C@H](C)CC2C3CCC4=CC(=O)C=C[C@]4(C)[C@@]3(F)[C@@H](O)C[C@@]21C)C1C(=O)NC(CC)C(=O)N(C)CC(=O)N(C)[C@@H](CC(C)C)C(=O)NC(C(C)C)C(=O)N(C)C(CC(C)C)C(=O)NC(C)C(=O)NC(C)C(=O)N(C)C(CC(C)C)C(=O)N(C)C(CC(C)C)C(=O)N(C)C(C(C)C)C(=O)N1C` (relative stereo) [Compound 20]: the “Rate … (Cyclosporine A)” value was 13.9 ± 1.11 nM/min/mg and the “Rate of formation Metabolite 1 (Dexamethasone)” value is 12.0 ± 0.88 nM/min/mg.

As for `C/C=C/C[C@@H](C)[C@@H](OC(=O)OCOC(=O)CCC(=O)OCCOCCOC(=O)CCC(=O)OCC(=O)[C@@]1(O)CCC2C3CCC4=CC(=O)C=C[C@]4(C)C3[C@@H](O)C[C@@]21C)C1C(=O)NC(CC)C(=O)N(C)CC(=O)N(C)[C@@H](CC(C)C)C(=O)NC(C(C)C)C(=O)N(C)C(CC(C)C)C(=O)NC(C)C(=O)NC(C)C(=O)N(C)C(CC(C)C)C(=O)N(C)C(CC(C)C)C(=O)N(C)C(C(C)C)C(=O)N1C` (relative stereo) [Compound 21], the “Rate … (Cyclosporine A)” value is given as 21.6 ± 0.03 nM/min/mg.

With `C/C=C/C[C@@H](C)[C@@H](OC(=O)OCOC(=O)CCC(=O)OCCOCCOCCOCCOCCOC(=O)CCC(=O)OCC(=O)[C@@]1(O)CCC2C3CCC4=CC(=O)C=C[C@]4(C)C3[C@@H](O)C[C@@]21C)C1C(=O)NC(CC)C(=O)N(C)CC(=O)N(C)[C@@H](CC(C)C)C(=O)NC(C(C)C)C(=O)N(C)C(CC(C)C)C(=O)NC(C)C(=O)NC(C)C(=O)N(C)C(CC(C)C)C(=O)N(C)C(CC(C)C)C(=O)N(C)C(C(C)C)C(=O)N1C` (relative stereo) [Compound 22], the “Rate … (Cyclosporine A)” value was determined as 46.5 ± 3.16 nM/min/mg and the “Rate … (Prednisolone)” value is listed as 38.4 ± 3.32 nM/min/mg.

As to `C/C=C/C[C@@H](C)[C@@H](OC(=O)OCOC(=O)CCC(=O)OCCOCCOCCOC(=O)CCC(=O)OCC(=O)[C@@]1(O)[C@H](C)CC2C3CCC4=CC(=O)C=C[C@]4(C)[C@@]3(F)[C@@H](O)C[C@@]21C)C1C(=O)NC(CC)C(=O)N(C)CC(=O)N(C)[C@@H](CC(C)C)C(=O)NC(C(C)C)C(=O)N(C)C(CC(C)C)C(=O)NC(C)C(=O)NC(C)C(=O)N(C)C(CC(C)C)C(=O)N(C)C(CC(C)C)C(=O)N(C)C(C(C)C)C(=O)N1C` (relative stereo) [Compound 32], the “Rate … (Cyclosporine A)” value is 13.4 ± 1.31 nM/min/mg and the “Rate of formation Metabolite 1 (Dexamethasone)” value came out at 20.4 ± 3.18 nM/min/mg.
